Data taken from the supplement of paper PMC9233669.
Variants at the floor of the assay were thinned out.

Legend:
[1] = tested on: biotinyl-Trp-oxazolone; experiment: self-aminoacylation, catalytic enhancement (BWO) (fold over background); higher = more active; k-Seq, kA / k0A0; sequences stand for … in GGGAAUGGAUCCACAUCUACGAAUUC…UUCACUGCAGACUUGACGAAGCUG
Outline: (§1)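 Working in 50 μL HEPES/NaCl/KCl/MgCl2/CaCl2 buffer with 5% acetonitrile at pH 6.9–7.0, mutagenized RNA pools (0.43 μM; 21-nt variable region) were reacted with 2–1250 μM of each biotinyl-aminoacyl-oxazolone for 90 minutes at room temperature. Streptavidin capture followed, with quantification by triplicate qPCR and Illumina sequencing. Catalytic enhancement is reported as median kA over the uncatalyzed rate, the low-activity peak of a bimodal Gaussian fit to the data.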

[2] = tested on: biotinyl-Val-oxazolone; experiment: self-aminoacylation, catalytic enhancement (BVO) (fold over background); higher = more active; k-Seq, kA / k0A0; sequences stand for … in GGGAAUGGAUCCACAUCUACGAAUUC…UUCACUGCAGACUUGACGAAGCUG
Outline: as §1

[3] = tested on: biotinyl-Leu-oxazolone; experiment: self-aminoacylation, catalytic enhancement (BLO) (fold over background); higher = more active; k-Seq, kA / k0A0; sequences stand for … in GGGAAUGGAUCCACAUCUACGAAUUC…UUCACUGCAGACUUGACGAAGCUG
Outline: as §1

[4] = tested on: biotinyl-Met-oxazolone; experiment: self-aminoacylation, catalytic enhancement (BMO) (fold over background); higher = more active; k-Seq, kA / k0A0; sequences stand for … in GGGAAUGGAUCCACAUCUACGAAUUC…UUCACUGCAGACUUGACGAAGCUG
Outline: as §1

[5] = tested on: biotinyl-Phe-oxazolone; experiment: self-aminoacylation, catalytic enhancement (BFO) (fold over background); higher = more active; k-Seq, kA / k0A0; sequences stand for … in GGGAAUGGAUCCACAUCUACGAAUUC…UUCACUGCAGACUUGACGAAGCUG
Outline: as §1

[6] = tested on: biotinyl-Ile-oxazolone; experiment: self-aminoacylation, catalytic enhancement (BIO) (fold over background); higher = more active; k-Seq, kA / k0A0; sequences stand for … in GGGAAUGGAUCCACAUCUACGAAUUC…UUCACUGCAGACUUGACGAAGCUG
Outline: as §1

Sequence | self-aminoacylation [1] | self-aminoacylation [2] | self-aminoacylation [3] | self-aminoacylation [4] | self-aminoacylation [5] | self-aminoacylation [6]
CUACUUCAAACAAUCGGUGUC [Fam1A.1 aminoacylation ribozyme variant] | 0.851 | 0.546 | 0.635 | 0.654 | 1.18 | 0.613
CUACUUCAAACAAUCGUUAUG [Fam1A.1 aminoacylation ribozyme variant] | 0.59 | 0.627 | 0.523 | 0.48 | 0.899 | 0.683
CUACUUCAAACAAUCGUUCCG [Fam1A.1 aminoacylation ribozyme variant] | 0.587 | 0.66 | 0.786 | 0.516 | 0.562 | 0.724
CUACUUCAAACAAUCGUUUUG [Fam1A.1 aminoacylation ribozyme variant] | 0.576 | 0.669 | 0.568 | 0.603 | 0.98 | 0.758
CUACUUCAAACAAUCUAUCUG [Fam1A.1 aminoacylation ribozyme variant] | 0.474 | 0.579 | 0.485 | 0.461 | 0.981 | 0.507
CUACUUCAAACAAUCUGUCUU [Fam1A.1 aminoacylation ribozyme variant] | 0.495 | 0.74 | 0.576 | 0.559 | 0.839 | 0.872
CUACUUCAAACAAUCUGUUUG [Fam1A.1 aminoacylation ribozyme variant] | 0.635 | 0.838 | 0.76 | 0.713 | 0.912 | 0.788
CUACUUCAAACAAUGGGUCAG [Fam1A.1 aminoacylation ribozyme variant] | 0.5 | 0.589 | 0.651 | 0.648 | 0.92 | 0.6
CUACUUCAAACAAUGGGUCUA [Fam1A.1 aminoacylation ribozyme variant] | 0.487 | 0.756 | 0.638 | 0.611 | 0.65 | 0.847
CUACUUCAAACAAUGGGUCUC [Fam1A.1 aminoacylation ribozyme variant] | 0.428 | 0.658 | 0.569 | 0.609 | 0.715 | 0.688
CUACUUCAAACAAUUGGACUG [Fam1A.1 aminoacylation ribozyme variant] | 0.443 | 0.641 | 0.664 | 0.633 | 0.671 | 0.709
CUACUUCAAACAAUUGGUUUG [Fam1A.1 aminoacylation ribozyme variant] | 0.708 | 0.7 | 0.721 | 0.676 | 0.803 | 0.757
CUACUUCAAACAAUUGUUCUG [Fam1A.1 aminoacylation ribozyme variant] | 0.367 | 0.636 | 0.611 | 0.633 | 0.673 | 0.619
CUACUUCAAACACGCGGUCUG [Fam1A.1 aminoacylation ribozyme variant] | 1.74 | 1.36 | 1.42 | 1.64 | 0.711 | 1.61
CUACUUCAAACAGUCGCUCUG [Fam1A.1 aminoacylation ribozyme variant] | 1.09 | 1.25 | 1.75 | 1.45 | 1.68 | 1.12
CUACUUCAAACAGUCGGACUG [Fam1A.1 aminoacylation ribozyme variant] | 0.682 | 0.826 | 0.564 | 0.697 | 0.77 | 0.853
CUACUUCAAACAGUCGUUCUG [Fam1A.1 aminoacylation ribozyme variant] | 0.472 | 0.611 | 0.475 | 0.589 | 0.701 | 0.579
CUACUUCAAACAGUCUGUCUG [Fam1A.1 aminoacylation ribozyme variant] | 0.337 | 0.597 | 0.568 | 0.515 | 0.663 | 0.608
CUACUUCAAACAGUUGGUCUG [Fam1A.1 aminoacylation ribozyme variant] | 0.595 | 0.736 | 0.79 | 0.538 | 0.982 | 0.893
CUACUUCAAACAUACGGUCUG [Fam1A.1 aminoacylation ribozyme variant] | 0.556 | 0.763 | 0.662 | 0.565 | 0.561 | 0.776
CUACUUCAAACAUUAGGUCUG [Fam1A.1 aminoacylation ribozyme variant] | 0.535 | 0.747 | 0.6 | 0.617 | 0.696 | 0.813
CUACUUCAAACAUUCGGUCAG [Fam1A.1 aminoacylation ribozyme variant] | 0.688 | 0.992 | 0.861 | 0.886 | 0.674 | 0.901
CUACUUCAAACAUUCGGUCUC [Fam1A.1 aminoacylation ribozyme variant] | 0.715 | 0.975 | 0.806 | 0.849 | 0.796 | 0.986
CUACUUCAAACCAACGGUCUG [Fam1A.1 aminoacylation ribozyme variant] | 0.556 | 1.02 | 0.587 | 0.68 | 1.44 | 0.786
CUACUUCAAACCAGCGGUCUG [Fam1A.1 aminoacylation ribozyme variant] | 0.677 | 1.13 | 1.09 | 0.722 | 0.715 | 0.921
CUACUUCAAACCAUCGGACUG [Fam1A.1 aminoacylation ribozyme variant] | 0.444 | 0.873 | 0.747 | 0.669 | 0.578 | 0.8

Sequence | self-aminoacylation [1] | self-aminoacylation [2] | self-aminoacylation [3] | self-aminoacylation [4] | self-aminoacylation [5] | self-aminoacylation [6]
CUACUUCAAACCAUCGGUCCG [Fam1A.1 aminoacylation ribozyme variant] | 0.99 | 0.922 | 0.996 | 0.868 | 0.607 | 0.761
CUACUUCAAACGACCGGUCUG [Fam1A.1 aminoacylation ribozyme variant] | 0.229 | 0.74 | 0.621 | 0.698 | 0.832 | 0.601
CUACUUCAAACGAUCCGUCUG [Fam1A.1 aminoacylation ribozyme variant] | 0.755 | 0.808 | 0.787 | 0.958 | 0.594 | 0.783
CUACUUCAAACGAUCGCUCUG [Fam1A.1 aminoacylation ribozyme variant] | 0.678 | 0.838 | 0.654 | 0.689 | 1.11 | 0.842
CUACUUCAAACGAUCGGGCUG [Fam1A.1 aminoacylation ribozyme variant] | 1.28 | 1.45 | 1.23 | 1.09 | 1.11 | 1.49
CUACUUCAAACGAUCGGUCUA [Fam1A.1 aminoacylation ribozyme variant] | 0.594 | 0.731 | 0.615 | 0.744 | 0.678 | 0.757
CUACUUCAAACGAUGGGUCUG [Fam1A.1 aminoacylation ribozyme variant] | 0.62 | 1 | 0.764 | 0.58 | 0.674 | 0.746
CUACUUCAAACUAGCGGUCUG [Fam1A.1 aminoacylation ribozyme variant] | 0.732 | 0.803 | 0.79 | 0.547 | 1.25 | 0.932
CUACUUCAAAGAACCGGUCUG [Fam1A.1 aminoacylation ribozyme variant] | 0.734 | 0.815 | 0.847 | 0.715 | 0.687 | 0.994
CUACUUCAAAGAAGCGGUCUG [Fam1A.1 aminoacylation ribozyme variant] | 0.832 | 0.988 | 0.82 | 1.01 | 1.17 | 1.09
CUACUUCAAAGAAUCCGUCUG [Fam1A.1 aminoacylation ribozyme variant] | 0.738 | 0.915 | 1.07 | 0.942 | 0.744 | 1.06
CUACUUCAAAGAAUCGGACUG [Fam1A.1 aminoacylation ribozyme variant] | 0.932 | 0.808 | 0.818 | 0.91 | 1.29 | 0.992
CUACUUCAAAGUAUCGGUCUG [Fam1A.1 aminoacylation ribozyme variant] | 0.979 | 0.975 | 0.941 | 0.824 | 1.44 | 0.979
CUACUUCAAAUAAUCGAUCUG [Fam1A.1 aminoacylation ribozyme variant] | 0.839 | 0.592 | 0.495 | 0.534 | 1.94 | 0.669
CUACUUCAAAUAAUCGGUCCG [Fam1A.1 aminoacylation ribozyme variant] | 1.76 | 0.657 | 0.654 | 0.599 | 2.68 | 0.585
CUACUUCAACCAAUAGGUCUG [Fam1A.1 aminoacylation ribozyme variant] | 0.753 | 0.777 | 0.743 | 0.703 | 1.05 | 0.947
CUACUUCAACCAAUCGGGCUG [Fam1A.1 aminoacylation ribozyme variant] | 6.74 | 1.22 | 1.68 | 1.24 | 7.63 | 1.71
CUACUUCAACCAAUCGGUCUC [Fam1A.1 aminoacylation ribozyme variant] | 12.9 | 0.98 | 1.19 | 0.76 | 23.8 | 0.904
CUACUUCAACCAAUCGGUCUU [Fam1A.1 aminoacylation ribozyme variant] | 8.43 | 0.934 | 1.32 | 0.975 | 16 | 1.02
CUACUUCAAGCAAUCGGUCUU [Fam1A.1 aminoacylation ribozyme variant] | 4.63 | 1.06 | 0.97 | 0.87 | 6.92 | 1.07
CUACUUCAAGCACUCGGUCUG [Fam1A.1 aminoacylation ribozyme variant] | 1.28 | 1.3 | 1.17 | 0.971 | 2.08 | 1.23
CUACUUCAAGCUAUCGGUCUG [Fam1A.1 aminoacylation ribozyme variant] | 0.43 | 0.892 | 0.689 | 0.942 | 0.617 | 0.839
CUACUUCAAUCAACCGGUCUG [Fam1A.1 aminoacylation ribozyme variant] | 0.663 | 0.806 | 0.729 | 0.525 | 0.9 | 0.925
CUACUUCAAUCAUUCGGUCUG [Fam1A.1 aminoacylation ribozyme variant] | 1.13 | 0.992 | 0.896 | 0.805 | 0.652 | 1.1
CUACUUCACAAAAUCGGUCUG [Fam1A.1 aminoacylation ribozyme variant] | 0.739 | 0.831 | 0.823 | 0.863 | 0.608 | 0.985
